From patent US12698507B2, “Methods and compositions for conferring and/or enhancing herbicide tolerance using protoporphyrinogen IX oxidase of various cyanobacteria or variant thereof” (FarmHannong Co., Ltd., priority 2019, dated 2026)

B1: CyPPO19 A167I + V305M + F360L: variant of CyPPO19 PPO protein (SEQ ID NO: 1) (protein)
chain: MSEVDVAIVGGGLSGLSLAWRLQQSAPQYSVVLLEASDRLGGNITTQTAEGFVWELGPNSFAPTPALLQLIAEVGLQSELIRGDRHLPRYIYWRGQLYPLQPTRPLALATSNLLSPWGKVRAALGALGFVPPYLGSGDESVNSFFRRHLGQEVAERLVAPFVSGVYIGDPQQLSAAAAFRRIAQLEKLGGGLIAGALHLRRQQAPKPKPPTSVQMRPGELGSFKEGLAALPRAIAQQLKAPIHLQTPVQEITPDPKGGYLLRSGEQTWRARSVVLATPAYQTAELVAPFQPAIARVLATIPYPTMACVVLAYPAGLGRSVRPGFGVLIPRSQGIRTLGTIWSSCLFPQRTPAGWQVFTSLIGGATDPDLASLSEEAIVQQVQQDLNRLLDLPAAKARLLGMKVWRRAIPQYMVGYPEQWQQVTHALSQTPGLFLCSNYAEGVALGDRVEHGNRTAAAVAAYLSGGQP
modifications: Synthetic_PPO of Thermosynechococcus elongatus PKUAC-SCTE542 (comprising GenBank No. CP032152.1)
B2: CyPPO19 A167C + V305L + F360V: variant of CyPPO19 PPO protein (SEQ ID NO: 1) (protein)
chain: MSEVDVAIVGGGLSGLSLAWRLQQSAPQYSVVLLEASDRLGGNITTQTAEGFVWELGPNSFAPTPALLQLIAEVGLQSELIRGDRHLPRYIYWRGQLYPLQPTRPLALATSNLLSPWGKVRAALGALGFVPPYLGSGDESVNSFFRRHLGQEVAERLVAPFVSGVYCGDPQQLSAAAAFRRIAQLEKLGGGLIAGALHLRRQQAPKPKPPTSVQMRPGELGSFKEGLAALPRAIAQQLKAPIHLQTPVQEITPDPKGGYLLRSGEQTWRARSVVLATPAYQTAELVAPFQPAIARVLATIPYPTLACVVLAYPAGLGRSVRPGFGVLIPRSQGIRTLGTIWSSCLFPQRTPAGWQVFTSVIGGATDPDLASLSEEAIVQQVQQDLNRLLDLPAAKARLLGMKVWRRAIPQYMVGYPEQWQQVTHALSQTPGLFLCSNYAEGVALGDRVEHGNRTAAAVAAYLSGGQP
modifications: Synthetic_PPO of Thermosynechococcus elongatus PKUAC-SCTE542 (comprising GenBank No. CP032152.1)
B3: CyPPO19 A167L + V305M + F360T: variant of CyPPO19 PPO protein (SEQ ID NO: 1) (protein)
chain: MSEVDVAIVGGGLSGLSLAWRLQQSAPQYSVVLLEASDRLGGNITTQTAEGFVWELGPNSFAPTPALLQLIAEVGLQSELIRGDRHLPRYIYWRGQLYPLQPTRPLALATSNLLSPWGKVRAALGALGFVPPYLGSGDESVNSFFRRHLGQEVAERLVAPFVSGVYLGDPQQLSAAAAFRRIAQLEKLGGGLIAGALHLRRQQAPKPKPPTSVQMRPGELGSFKEGLAALPRAIAQQLKAPIHLQTPVQEITPDPKGGYLLRSGEQTWRARSVVLATPAYQTAELVAPFQPAIARVLATIPYPTMACVVLAYPAGLGRSVRPGFGVLIPRSQGIRTLGTIWSSCLFPQRTPAGWQVFTSTIGGATDPDLASLSEEAIVQQVQQDLNRLLDLPAAKARLLGMKVWRRAIPQYMVGYPEQWQQVTHALSQTPGLFLCSNYAEGVALGDRVEHGNRTAAAVAAYLSGGQP
modifications: Synthetic_PPO of Thermosynechococcus elongatus PKUAC-SCTE542 (comprising GenBank No. CP032152.1)
B4: CyPPO19 A167L + L327T + F360M: variant of CyPPO19 PPO protein (SEQ ID NO: 1) (protein)
chain: MSEVDVAIVGGGLSGLSLAWRLQQSAPQYSVVLLEASDRLGGNITTQTAEGFVWELGPNSFAPTPALLQLIAEVGLQSELIRGDRHLPRYIYWRGQLYPLQPTRPLALATSNLLSPWGKVRAALGALGFVPPYLGSGDESVNSFFRRHLGQEVAERLVAPFVSGVYLGDPQQLSAAAAFRRIAQLEKLGGGLIAGALHLRRQQAPKPKPPTSVQMRPGELGSFKEGLAALPRAIAQQLKAPIHLQTPVQEITPDPKGGYLLRSGEQTWRARSVVLATPAYQTAELVAPFQPAIARVLATIPYPTVACVVLAYPAGLGRSVRPGFGVTIPRSQGIRTLGTIWSSCLFPQRTPAGWQVFTSMIGGATDPDLASLSEEAIVQQVQQDLNRLLDLPAAKARLLGMKVWRRAIPQYMVGYPEQWQQVTHALSQTPGLFLCSNYAEGVALGDRVEHGNRTAAAVAAYLSGGQP
modifications: Synthetic_PPO of Thermosynechococcus elongatus PKUAC-SCTE542 (comprising GenBank No. CP032152.1)
B5: CyPPO19 A167C + L327T + F360I: variant of CyPPO19 PPO protein (SEQ ID NO: 1) (protein)
chain: MSEVDVAIVGGGLSGLSLAWRLQQSAPQYSVVLLEASDRLGGNITTQTAEGFVWELGPNSFAPTPALLQLIAEVGLQSELIRGDRHLPRYIYWRGQLYPLQPTRPLALATSNLLSPWGKVRAALGALGFVPPYLGSGDESVNSFFRRHLGQEVAERLVAPFVSGVYCGDPQQLSAAAAFRRIAQLEKLGGGLIAGALHLRRQQAPKPKPPTSVQMRPGELGSFKEGLAALPRAIAQQLKAPIHLQTPVQEITPDPKGGYLLRSGEQTWRARSVVLATPAYQTAELVAPFQPAIARVLATIPYPTVACVVLAYPAGLGRSVRPGFGVTIPRSQGIRTLGTIWSSCLFPQRTPAGWQVFTSIIGGATDPDLASLSEEAIVQQVQQDLNRLLDLPAAKARLLGMKVWRRAIPQYMVGYPEQWQQVTHALSQTPGLFLCSNYAEGVALGDRVEHGNRTAAAVAAYLSGGQP
modifications: Synthetic_PPO of Thermosynechococcus elongatus PKUAC-SCTE542 (comprising GenBank No. CP032152.1)

System: PPO-deficient BT3 E. coli (ΔPPO)
Test: PPO-inhibiting herbicide tolerance test of PPO variants in E. coli (growth on herbicide-containing LB agar)
Assay type: cell-based
Conditions: CyPPO19 variants in BT3 (ΔPPO) E. coli; LB agar with 0 to 2,000 μM herbicide, 37° C., dark, 16-20 hours
Outline: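 PPO-deficient BT3 E. coli expressing each variant from pET303 were diluted to OD600=0.5, then 10-fold serially, and spotted on LB-ampicillin agar with 0 to 2,000 μM herbicide. After 16-20 h at 37° C. in the dark, growth relative to wild type was scored from '−' (equivalent) to '+' per 10-fold resistance, max '+++++'.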

Molecule | tolerance level relative to wild type, Carfentrazone | tolerance level relative to wild type, Flumioxazin | tolerance level relative to wild type, Fomesafen | tolerance level relative to wild type, Oxyfluorfen | tolerance level relative to wild type, Saflufenacil | tolerance level relative to wild type, Sulfentrazone | tolerance level relative to wild type, Tiafenacil
B1 | + (‘+’ per each 10-fold resistance) | +++++ (until ‘+++++’ as maximal resistance) | +++ (‘+’ per each 10-fold resistance) | +++ (‘+’ per each 10-fold resistance) | +++++ (until ‘+++++’ as maximal resistance) | +++++ (until ‘+++++’ as maximal resistance) | +++++ (until ‘+++++’ as maximal resistance)
B2 | + (‘+’ per each 10-fold resistance) | +++++ (until ‘+++++’ as maximal resistance) | + (‘+’ per each 10-fold resistance) | ++ (‘+’ per each 10-fold resistance) | +++++ (until ‘+++++’ as maximal resistance) | + (‘+’ per each 10-fold resistance) | ++++ (‘+’ per each 10-fold resistance)
B3 | + (‘+’ per each 10-fold resistance) | +++++ (until ‘+++++’ as maximal resistance) | +++ (‘+’ per each 10-fold resistance) | +++ (‘+’ per each 10-fold resistance) | +++++ (until ‘+++++’ as maximal resistance) | +++++ (until ‘+++++’ as maximal resistance) | ++++ (‘+’ per each 10-fold resistance)
B4 | + (‘+’ per each 10-fold resistance) | +++++ (until ‘+++++’ as maximal resistance) | +++ (‘+’ per each 10-fold resistance) | +++ (‘+’ per each 10-fold resistance) | +++++ (until ‘+++++’ as maximal resistance) | +++++ (until ‘+++++’ as maximal resistance) | +++++ (until ‘+++++’ as maximal resistance)
B5 | + (‘+’ per each 10-fold resistance) | ++++ (‘+’ per each 10-fold resistance) | ++ (‘+’ per each 10-fold resistance) | +++ (‘+’ per each 10-fold resistance) | +++ (‘+’ per each 10-fold resistance) | ++++ (‘+’ per each 10-fold resistance) | ++++ (‘+’ per each 10-fold resistance)
